Common to all, as to experiment: SPR (Biacore), FcγR over captured antibody; amount bound relative to IL6R-BF648/IL6R-L x100
One assay concerns the target T1, human FcγRIa (human, UniProt P12314 16-292, limits assumed).
T1 construct: also called CD64

The target in a further assay is T2, human FcγRIIb (human, UniProt P31994 43-217).
T2 construct: also called FcγIIB
T2 sequence: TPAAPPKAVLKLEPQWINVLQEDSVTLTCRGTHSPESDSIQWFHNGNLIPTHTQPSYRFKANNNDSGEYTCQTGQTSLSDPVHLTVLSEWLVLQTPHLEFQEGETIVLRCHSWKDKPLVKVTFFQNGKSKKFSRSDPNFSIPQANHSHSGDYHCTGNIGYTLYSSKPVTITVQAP

Another assay has as its target T3, human FcγRIIa type H (human, UniProt P12318 36-217).
T3 construct: Whole entry named for FcγRIIa allotype H131 (AAH20823.1); also called FcγRIIaH; FcγRIIa(H)
T3 sequence: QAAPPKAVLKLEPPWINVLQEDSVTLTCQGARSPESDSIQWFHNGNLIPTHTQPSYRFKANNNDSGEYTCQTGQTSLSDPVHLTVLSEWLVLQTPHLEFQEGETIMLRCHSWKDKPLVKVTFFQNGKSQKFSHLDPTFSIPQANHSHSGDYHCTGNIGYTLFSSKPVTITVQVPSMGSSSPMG

Another assay concerns the target T4, human FcγRIIa type R (human, UniProt P12318 36-217).
T4 construct: also called FcγRIIaR; FcγRIIa(R)
T4 chain: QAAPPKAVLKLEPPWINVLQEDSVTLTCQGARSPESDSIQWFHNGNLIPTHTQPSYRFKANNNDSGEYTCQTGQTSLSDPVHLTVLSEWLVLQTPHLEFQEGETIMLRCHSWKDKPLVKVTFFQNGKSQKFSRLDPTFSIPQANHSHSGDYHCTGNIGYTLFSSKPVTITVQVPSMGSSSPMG

For the next assay, the target named is T5, human FcγRIIIa type V (human, UniProt P08637 17-208, limits assumed).
T5 construct: also called FcγRIIIaV; FcγRIIIa(V)
T5 sequence (P08637 other isoform, or with tags, fused parts or gaps limits assumed): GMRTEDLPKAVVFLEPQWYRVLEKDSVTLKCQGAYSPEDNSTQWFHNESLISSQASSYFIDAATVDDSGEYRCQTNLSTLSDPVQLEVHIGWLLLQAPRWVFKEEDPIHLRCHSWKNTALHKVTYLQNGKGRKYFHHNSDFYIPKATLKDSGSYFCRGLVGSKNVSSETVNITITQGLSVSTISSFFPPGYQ

T1 sequence (P12314 16-292 limits assumed): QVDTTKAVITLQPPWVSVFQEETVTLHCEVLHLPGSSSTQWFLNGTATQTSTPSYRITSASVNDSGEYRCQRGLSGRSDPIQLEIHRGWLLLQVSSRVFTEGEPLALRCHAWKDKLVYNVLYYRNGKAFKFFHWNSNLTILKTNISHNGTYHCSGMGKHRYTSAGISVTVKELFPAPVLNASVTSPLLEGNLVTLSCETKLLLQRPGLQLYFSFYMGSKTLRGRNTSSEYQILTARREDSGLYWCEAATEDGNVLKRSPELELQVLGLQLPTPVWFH

B1: IL6R-2B171/IL6R-L (antibody, human IgG1)
heavy: QVQLQESGPGLVKPSETLSLTCAVSGHSISHDHAWSWVRQPPGEGLEWIGFISYSGITNYNPSLQGRVTISRDNSKNTLYLQMNSLRAEDTAVYYCARSLARTTAMDYWGEGTLVTVSSASTKGPSVFPLAPSSKSTSGGTAALGCLVKDYFPEPVTVSWNSGALTSGVHTFPAVLQSSGLYSLSSVVTVPSSSLGTQTYICNVNHKPSNTKVDKKVEPKSCDKTHTCPPCPAPELLGGDSVFLFPPKPKDTLMISRTPEVTCVVVDVSHEDPEVKFNWYVDGVEVHNAKTKPREEQYNSTYRVVSVLTVLHQDWLNGKEYKCKLSNKALPAPIEKTISKAKGQPREPQVYTLPPSRDELTKNQVSLTCLVKGFYPSDIAVEWESNGQPENNYKTTPPVLDSDGSFFLYSKLTVDKSRWQQGNVFSCSVMHEALHNHYTQESLSLSP
light: DIQMTQSPSSLSASVGDRVTITCRASQDISSYLNWYQQKPGKAPKLLIYYTSRLHSGVPSRFSGSGSGTDFTFTISSLQPEDIATYYCQQGNTLPYTFGQGTKVEIK
notes: copies: 2 + 2
Take B1: the relative binding in the assay with human FcγRIa is 116 relative value (IL6R-BF648/IL6R-L = 100); with human FcγRIIb, 113 relative value (IL6R-BF648/IL6R-L = 100); with human FcγRIIa type H it was 115 relative value (IL6R-BF648/IL6R-L = 100); with human FcγRIIa type R, 117 relative value (IL6R-BF648/IL6R-L = 100); in the assay with human FcγRIIIa type V it was 122 relative value (IL6R-BF648/IL6R-L = 100).

B2: IL6R-BP110/IL6R-L (antibody, human IgG1)
heavy: QVQLQESGPGLVKPSETLSLTCAVSGHSISHDHAWSWVRQPPGEGLEWIGFISYSGITNYNPSLQGRVTISRDNSKNTLYLQMNSLRAEDTAVYYCARSLARTTAMDYWGEGTLVTVSSASTKGPSVFPLAPSSKSTSGGTAALGCLVKDYFPEPVTVSWNSGALTSGVHTFPAVLQSSGLYSLSSVVTVPSSSLGTQTYICNVNHKPSNTKVDKKVEPKSCDKTHTCPPCPAPELLGGDSVFLFPPKPKDTLMISRTPEVTCVVVDVSNEDPEVKFNWYVDGVEVHNAKTKPREEQYNSTYRVVSVLTVLHQDWLNGKEYKCKVSNKALPAPIEKTISKAKGQPREPQVYTLPPSRDELTKNQVSLTCLVKGFYPSDIAVEWESNGQPENNYKTTPPVLDSDGSFFLYSKLTVDKSRWQQGNVFSCSVMHEALHNHYTQESLSLSP
light: DIQMTQSPSSLSASVGDRVTITCRASQDISSYLNWYQQKPGKAPKLLIYYTSRLHSGVPSRFSGSGSGTDFTFTISSLQPEDIATYYCQQGNTLPYTFGQGTKVEIK
notes: copies: 2 + 2
Turning to B2, the relative binding in the assay with human FcγRIa is 105 relative value (IL6R-BF648/IL6R-L = 100); with human FcγRIIb, 101 relative value (IL6R-BF648/IL6R-L = 100); with human FcγRIIa type H it was 127 relative value (IL6R-BF648/IL6R-L = 100); with human FcγRIIa type R, 128 relative value (IL6R-BF648/IL6R-L = 100); in the assay with human FcγRIIIa type V it was 127 relative value (IL6R-BF648/IL6R-L = 100).

B3: IL6R-BP116/IL6R-L (antibody, human IgG1)
heavy: QVQLQESGPGLVKPSETLSLTCAVSGHSISHDHAWSWVRQPPGEGLEWIGFISYSGITNYNPSLQGRVTISRDNSKNTLYLQMNSLRAEDTAVYYCARSLARTTAMDYWGEGTLVTVSSASTKGPSVFPLAPSSKSTSGGTAALGCLVKDYFPEPVTVSWNSGALTSGVHTFPAVLQSSGLYSLSSVVTVPSSSLGTQTYICNVNHKPSNTKVDKKVEPKSCDKTHTCPPCPAPELLGGDSVFLFPPKPKDTLMISRTPEVTCVVVDVSHEDPEVKFNWYVDGVEVHNAKTKPREEQYNSTYRVVSVLTVLHQDWLNGKEYKCKVSNTALPAPIEKTISKAKGQPREPQVYTLPPSRDELTKNQVSLTCLVKGFYPSDIAVEWESNGQPENNYKTTPPVLDSDGSFFLYSKLTVDKSRWQQGNVFSCSVMHEALHNHYTQESLSLSP
light: DIQMTQSPSSLSASVGDRVTITCRASQDISSYLNWYQQKPGKAPKLLIYYTSRLHSGVPSRFSGSGSGTDFTFTISSLQPEDIATYYCQQGNTLPYTFGQGTKVEIK
notes: copies: 2 + 2
With B3, the relative binding with human FcγRIa is 110 relative value (IL6R-BF648/IL6R-L = 100); with human FcγRIIb, 108 relative value (IL6R-BF648/IL6R-L = 100); with human FcγRIIa type H, 110 relative value (IL6R-BF648/IL6R-L = 100); with human FcγRIIa type R, 126 relative value (IL6R-BF648/IL6R-L = 100); in the assay with human FcγRIIIa type V, 114 relative value (IL6R-BF648/IL6R-L = 100).

B4: IL6R-BP100/IL6R-L (antibody, human IgG1)
heavy: QVQLQESGPGLVKPSETLSLTCAVSGHSISHDHAWSWVRQPPGEGLEWIGFISYSGITNYNPSLQGRVTISRDNSKNTLYLQMNSLRAEDTAVYYCARSLARTTAMDYWGEGTLVTVSSASTKGPSVFPLAPSSKSTSGGTAALGCLVKDYFPEPVTVSWNSGALTSGVHTFPAVLQSSGLYSLSSVVTVPSSSLGTQTYICNVNHKPSNTKVDKKVEPKSCDKTHTCPPCPAPELLGGDSVFLFPPKPKDTLMISRTPEVTCVVVDVAHEDPEVKFNWYVDGVEVHNAKTKPREEQYNSTYRVVSVLTVLHQDWLNGKEYKCKVSNKALPAPIEKTISKAKGQPREPQVYTLPPSRDELTKNQVSLTCLVKGFYPSDIAVEWESNGQPENNYKTTPPVLDSDGSFFLYSKLTVDKSRWQQGNVFSCSVMHEALHNHYTQESLSLSP
light: DIQMTQSPSSLSASVGDRVTITCRASQDISSYLNWYQQKPGKAPKLLIYYTSRLHSGVPSRFSGSGSGTDFTFTISSLQPEDIATYYCQQGNTLPYTFGQGTKVEIK
notes: copies: 2 + 2
In the case of B4, the relative binding is 121 relative value (IL6R-BF648/IL6R-L = 100) with human FcγRIa; 110 relative value (IL6R-BF648/IL6R-L = 100) with human FcγRIIb; 128 relative value (IL6R-BF648/IL6R-L = 100) with human FcγRIIa type H; 197 relative value (IL6R-BF648/IL6R-L = 100) in the assay with human FcγRIIa type R; 138 relative value (IL6R-BF648/IL6R-L = 100) with human FcγRIIIa type V.

B5: IL6R-2B172/IL6R-L (antibody, human IgG1)
heavy: QVQLQESGPGLVKPSETLSLTCAVSGHSISHDHAWSWVRQPPGEGLEWIGFISYSGITNYNPSLQGRVTISRDNSKNTLYLQMNSLRAEDTAVYYCARSLARTTAMDYWGEGTLVTVSSASTKGPSVFPLAPSSKSTSGGTAALGCLVKDYFPEPVTVSWNSGALTSGVHTFPAVLQSSGLYSLSSVVTVPSSSLGTQTYICNVNHKPSNTKVDKKVEPKSCDKTHTCPPCPAPELLGGDSVFLFPPKPKDTLMISRTPEVTCVVVDVSHEDPEVKFNWYVDGVEVHNAKTKPREEQYNSTYRVVSVLTVLHQDWLNGKEYKCKMSNKALPAPIEKTISKAKGQPREPQVYTLPPSRDELTKNQVSLTCLVKGFYPSDIAVEWESNGQPENNYKTTPPVLDSDGSFFLYSKLTVDKSRWQQGNVFSCSVMHEALHNHYTQESLSLSP
light: DIQMTQSPSSLSASVGDRVTITCRASQDISSYLNWYQQKPGKAPKLLIYYTSRLHSGVPSRFSGSGSGTDFTFTISSLQPEDIATYYCQQGNTLPYTFGQGTKVEIK
notes: copies: 2 + 2
As for B5, the relative binding with human FcγRIa was 140 relative value (IL6R-BF648/IL6R-L = 100); with human FcγRIIb, 132 relative value (IL6R-BF648/IL6R-L = 100); with human FcγRIIa type H, 179 relative value (IL6R-BF648/IL6R-L = 100); with human FcγRIIa type R, 244 relative value (IL6R-BF648/IL6R-L = 100); in the assay with human FcγRIIIa type V, 144 relative value (IL6R-BF648/IL6R-L = 100).

B6: IL6R-BP102/IL6R-L (antibody, human IgG1)
heavy: QVQLQESGPGLVKPSETLSLTCAVSGHSISHDHAWSWVRQPPGEGLEWIGFISYSGITNYNPSLQGRVTISRDNSKNTLYLQMNSLRAEDTAVYYCARSLARTTAMDYWGEGTLVTVSSASTKGPSVFPLAPSSKSTSGGTAALGCLVKDYFPEPVTVSWNSGALTSGVHTFPAVLQSSGLYSLSSVVTVPSSSLGTQTYICNVNHKPSNTKVDKKVEPKSCDKTHTCPPCPAPELLGGDSVFLFPPKPKDTLMISRTPEVTCVVVDVQHEDPEVKFNWYVDGVEVHNAKTKPREEQYNSTYRVVSVLTVLHQDWLNGKEYKCKVSNKALPAPIEKTISKAKGQPREPQVYTLPPSRDELTKNQVSLTCLVKGFYPSDIAVEWESNGQPENNYKTTPPVLDSDGSFFLYSKLTVDKSRWQQGNVFSCSVMHEALHNHYTQESLSLSP
light: DIQMTQSPSSLSASVGDRVTITCRASQDISSYLNWYQQKPGKAPKLLIYYTSRLHSGVPSRFSGSGSGTDFTFTISSLQPEDIATYYCQQGNTLPYTFGQGTKVEIK
notes: copies: 2 + 2
In the case of B6, the relative binding was 104 relative value (IL6R-BF648/IL6R-L = 100) with human FcγRIa; 106 relative value (IL6R-BF648/IL6R-L = 100) in the assay with human FcγRIIb; 66 relative value (IL6R-BF648/IL6R-L = 100) in the assay with human FcγRIIa type H; 165 relative value (IL6R-BF648/IL6R-L = 100) in the assay with human FcγRIIa type R; 86 relative value (IL6R-BF648/IL6R-L = 100) with human FcγRIIIa type V.

B7: IL6R-BP103/IL6R-L (antibody, human IgG1)
heavy: QVQLQESGPGLVKPSETLSLTCAVSGHSISHDHAWSWVRQPPGEGLEWIGFISYSGITNYNPSLQGRVTISRDNSKNTLYLQMNSLRAEDTAVYYCARSLARTTAMDYWGEGTLVTVSSASTKGPSVFPLAPSSKSTSGGTAALGCLVKDYFPEPVTVSWNSGALTSGVHTFPAVLQSSGLYSLSSVVTVPSSSLGTQTYICNVNHKPSNTKVDKKVEPKSCDKTHTCPPCPAPELLGGDSVFLFPPKPKDTLMISRTPEVTCVVVDVVHEDPEVKFNWYVDGVEVHNAKTKPREEQYNSTYRVVSVLTVLHQDWLNGKEYKCKVSNKALPAPIEKTISKAKGQPREPQVYTLPPSRDELTKNQVSLTCLVKGFYPSDIAVEWESNGQPENNYKTTPPVLDSDGSFFLYSKLTVDKSRWQQGNVFSCSVMHEALHNHYTQESLSLSP
light: DIQMTQSPSSLSASVGDRVTITCRASQDISSYLNWYQQKPGKAPKLLIYYTSRLHSGVPSRFSGSGSGTDFTFTISSLQPEDIATYYCQQGNTLPYTFGQGTKVEIK
notes: copies: 2 + 2
In the case of B7, the relative binding in the assay with human FcγRIa was 56 relative value (IL6R-BF648/IL6R-L = 100); with human FcγRIIb it was 107 relative value (IL6R-BF648/IL6R-L = 100); with human FcγRIIa type H, 69 relative value (IL6R-BF648/IL6R-L = 100); with human FcγRIIa type R, 163 relative value (IL6R-BF648/IL6R-L = 100); in the assay with human FcγRIIIa type V, 77 relative value (IL6R-BF648/IL6R-L = 100).

Values taken from US20140105889A1 (published 2014).
